± gives the uncertainty stated by the source.
B1: Probable E3 ubiquitin-protein ligase MID2, residues 191 to 235; numbered along this chain, Q9UJV3 (parent)
chain: RGITCLDHENEKVNMYCVSDDQLICALCKLVGRHRDHQVASLNDR

Variants of: B1
Assay: abundance fitness (aPCA) (normalised: wild type 0, dead -1); higher = more abundant; growth selection in yeast, the domain comes from the species named
Conditions: Homo sapiens

**Q.** With RGITCLDHENEKVNMYCVSDDQLICALCKLVGRVRDHQVASLNDR [H34V] as the variant, how does the abundance fitness read?
**A.** The abundance fitness was -0.558 ± 0.081.

**Q.** For RGITCLDHENEKVNMYCVSDDQLICALCKLVGRMRDHQVASLNDR [H34M], which abundance fitness is on record?
**A.** The abundance fitness was -0.677 ± 0.096.

**Q.** For RGITCLDHENEKVNMYCVSDDQLICALCKLVGRERDHQVASLNDR [H34E], which abundance fitness is on record?
**A.** The abundance fitness was -0.368 ± 0.12.

**Q.** For RGITCLDHENEKVNMYCVSDDQLICALCKLVGRQRDHQVASLNDR [H34Q], which abundance fitness is on record?
**A.** Its abundance fitness is -0.319 ± 0.087.

**Q.** Which abundance fitness does the source give for RGITCLDHENEKVNMYCVSDDQLICALCKLVGRPRDHQVASLNDR [H34P] here?
**A.** Its abundance fitness is -0.66 ± 0.15.

**Q.** Which abundance fitness does the source give for RGITCLDHENEKVNMYCVSDDQLICALCKLVGRKRDHQVASLNDR [H34K] here?
**A.** Its abundance fitness is -0.402 ± 0.11.

**Q.** For RGITCLDHENEKVNMYCVSDDQLICALCKLVGRDRDHQVASLNDR [H34D], which abundance fitness is on record?
**A.** The abundance fitness was -0.66 ± 0.13.

**Q.** With RGITCLDHENEKVNMYCVSDDQLICALCKLVGRWRDHQVASLNDR [H34W] as the variant, how does the abundance fitness read?
**A.** The abundance fitness was -0.997 ± 0.12.

**Q.** Which abundance fitness does the source give for RGITCLDHENEKVNMYCVSDDQLICALCKLVGRARDHQVASLNDR [H34A] here?
**A.** The abundance fitness was -0.48 ± 0.062.

**Q.** For RGITCLDHENEKVNMYCVSDDQLICALCKLVGRRRDHQVASLNDR [H34R], which abundance fitness is on record?
**A.** Its abundance fitness is -0.459 ± 0.064.

**Q.** For RGITCLDHENEKVNMYCVSDDQLICALCKLVGRGRDHQVASLNDR [H34G], which abundance fitness is on record?
**A.** The abundance fitness was -0.383 ± 0.063.

**Q.** With RGITCLDHENEKVNMYCVSDDQLICALCKLVGRFRDHQVASLNDR [H34F] as the variant, how does the abundance fitness read?
**A.** Its abundance fitness is -0.184 ± 0.16.

**Q.** For RGITCLDHENEKVNMYCVSDDQLICALCKLVGRSRDHQVASLNDR [H34S], which abundance fitness is on record?
**A.** The abundance fitness was -0.387 ± 0.1.

**Q.** Which abundance fitness does the source give for RGITCLDHENEKVNMYCVSDDQLICALCKLVGRYRDHQVASLNDR [H34Y] here?
**A.** Its abundance fitness is -0.634 ± 0.29.

**Q.** With RGITCLDHENEKVNMYCVSDDQLICALCKLVGRLRDHQVASLNDR [H34L] as the variant, how does the abundance fitness read?
**A.** The abundance fitness was -1.13 ± 0.19.

**Q.** With RGITCLDHENEKVNMYCVSDDQLICALCKLVGRTRDHQVASLNDR [H34T] as the variant, how does the abundance fitness read?
**A.** Its abundance fitness is -0.473 ± 0.1.

**Q.** Which abundance fitness does the source give for RGITCLDHENEKVNMYCVSDDQLICALCKLVGRNRDHQVASLNDR [H34N] here?
**A.** The abundance fitness was -0.474 ± 0.12.

**Q.** Which abundance fitness does the source give for RGITCLDHENEKVNMYCVSDDQLICALCKLVGRHRDHQVESLNDR [A40E] here?
**A.** The abundance fitness was 0.072 ± 0.069.

**Q.** Which abundance fitness does the source give for RGITCLDHENEKVNMYCVSDDQLICALCKLVGRHRDHQVGSLNDR [A40G] here?
**A.** Its abundance fitness is 0.003 ± 0.052.

**Q.** Which abundance fitness does the source give for RGITCLDHENEKVNMYCVSDDQLICALCKLVGRHRDHQVMSLNDR [A40M] here?
**A.** Its abundance fitness is -0.216 ± 0.086.

**Q.** Which abundance fitness does the source give for RGITCLDHENEKVNMYCVSDDQLICALCKLVGRHRDHQVKSLNDR [A40K] here?
**A.** Its abundance fitness is -0.138 ± 0.12.

**Q.** For RGITCLDHENEKVNMYCVSDDQLICALCKLVGRHRDHQVRSLNDR [A40R], which abundance fitness is on record?
**A.** Its abundance fitness is 0.014 ± 0.052.

**Q.** Which abundance fitness does the source give for RGITCLDHENEKVNMYCVSDDQLICALCKLVGRHRDHQVQSLNDR [A40Q] here?
**A.** Its abundance fitness is 0.09 ± 0.076.

**Q.** For RGITCLDHENEKVNMYCVSDDQLICALCKLVGRHRDHQVFSLNDR [A40F], which abundance fitness is on record?
**A.** The abundance fitness was -0.176 ± 0.1.

**Q.** Which abundance fitness does the source give for RGITCLDHENEKVNMYCVSDDQLICALCKLVGRHRDHQVDSLNDR [A40D] here?
**A.** The abundance fitness was 0.043 ± 0.077.

**Q.** Which abundance fitness does the source give for RGITCLDHENEKVNMYCVSDDQLICALCKLVGRHRDHQVCSLNDR [A40C] here?
**A.** The abundance fitness was -0.063 ± 0.068.

**Q.** Which abundance fitness does the source give for RGITCLDHENEKVNMYCVSDDQLICALCKLVGRHRDHQVHSLNDR [A40H] here?
**A.** Its abundance fitness is -0.296 ± 0.18.

**Q.** With RGITCLDHENEKVNMYCVSDDQLICALCKLVGRHRDHQVNSLNDR [A40N] as the variant, how does the abundance fitness read?
**A.** The abundance fitness was -0.082 ± 0.23.

**Q.** For RGITCLDHENEKVNMYCVSDDQLICALCKLVGRHRDHQVPSLNDR [A40P], which abundance fitness is on record?
**A.** The abundance fitness was -0.415 ± 0.095.

**Q.** Which abundance fitness does the source give for RGITCLDHENEKVNMYCVSDDQLICALCKLVGRHRDHQWASLNDR [V39W] here?
**A.** The abundance fitness was -0.23 ± 0.076.

**Q.** With RGITCLDHENEKVNMYCVSDDQLICALCKLVGRHRDHQTASLNDR [V39T] as the variant, how does the abundance fitness read?
**A.** Its abundance fitness is 0.06 ± 0.063.

**Q.** For RGITCLDHENEKVNMYCVSDDQLICALCKLVGRHRDHQDASLNDR [V39D], which abundance fitness is on record?
**A.** The abundance fitness was -0.258 ± 0.071.

**Q.** Which abundance fitness does the source give for RGITCLDHENEKVNMYCVSDDQLICALCKLVGRHRDHQSASLNDR [V39S] here?
**A.** The abundance fitness was 0.082 ± 0.11.

**Q.** With RGITCLDHENEKVNMYCVSDDQLICALCKLVGRHRDHQRASLNDR [V39R] as the variant, how does the abundance fitness read?
**A.** The abundance fitness was -0.319 ± 0.055.

**Q.** With RGITCLDHENEKVNMYCVSDDQLICALCKLVGRHRDHQGASLNDR [V39G] as the variant, how does the abundance fitness read?
**A.** Its abundance fitness is -0.191 ± 0.054.

**Q.** With RGITCLDHENEKVNMYCVSDDQLICALCKLVGRHRDHQMASLNDR [V39M] as the variant, how does the abundance fitness read?
**A.** The abundance fitness was -0.129 ± 0.095.

**Q.** Which abundance fitness does the source give for RGITCLDHENEKVNMYCVSDDQLICALCKLVGRHRDHQEASLNDR [V39E] here?
**A.** Its abundance fitness is -0.143 ± 0.068.

**Q.** With RGITCLDHENEKVNMYCVSDDQLICALCKLVGRHRDHQLASLNDR [V39L] as the variant, how does the abundance fitness read?
**A.** The abundance fitness was -0.079 ± 0.062.

**Q.** Which abundance fitness does the source give for RGITCLDHENEKVNMYCVSDDQLICALCKLVGRHRDHQKASLNDR [V39K] here?
**A.** Its abundance fitness is -0.449 ± 0.17.

**Q.** With RGITCLDHENEKVNMYCVSDDQLICALCKLVGRHRDHQHASLNDR [V39H] as the variant, how does the abundance fitness read?
**A.** Its abundance fitness is 0.067 ± 0.15.

**Q.** For RGITCLDHENEKVNMYCVSDDQLICALCKLVGRHRDHQIASLNDR [V39I], which abundance fitness is on record?
**A.** Its abundance fitness is -0.153 ± 0.095.

**Q.** With RGITCLDHENEKVNMYCVSDDQLICALCKLVGRHRDHQPASLNDR [V39P] as the variant, how does the abundance fitness read?
**A.** Its abundance fitness is -0.249 ± 0.13.

**Q.** Which abundance fitness does the source give for RGITCLDHENEKVNMYCVSDDQLICALCKLVGRHRDHQQASLNDR [V39Q] here?
**A.** The abundance fitness was -0.081 ± 0.086.

**Q.** Which abundance fitness does the source give for RGITCLDHENEKVNMYCVSDDQLICALCKLVGRHRDHQCASLNDR [V39C] here?
**A.** Its abundance fitness is -0.014 ± 0.1.

**Q.** For RGITCLDHENEKVNMYCVSDDQLICALCKLVGRHRDHQYASLNDR [V39Y], which abundance fitness is on record?
**A.** The abundance fitness was -0.335 ± 0.2.

**Q.** Which abundance fitness does the source give for RGITCLDHENEKVNMYCVSDDQLICALCKLVGRHRPHQVASLNDR [D36P] here?
**A.** Its abundance fitness is -0.311 ± 0.074.

**Q.** For RGITCLDHENEKVNMYCVSDDQLICALCKLVGRHRGHQVASLNDR [D36G], which abundance fitness is on record?
**A.** Its abundance fitness is -0.098 ± 0.054.

**Q.** With RGITCLDHENEKVNMYCVSDDQLICALCKLVGRHRCHQVASLNDR [D36C] as the variant, how does the abundance fitness read?
**A.** The abundance fitness was -0.278 ± 0.067.

**Q.** Which abundance fitness does the source give for RGITCLDHENEKVNMYCVSDDQLICALCKLVGRHRIHQVASLNDR [D36I] here?
**A.** The abundance fitness was -0.34 ± 0.4.

**Q.** With RGITCLDHENEKVNMYCVSDDQLICALCKLVGRHRWHQVASLNDR [D36W] as the variant, how does the abundance fitness read?
**A.** Its abundance fitness is -0.311 ± 0.079.

**Q.** For RGITCLDHENEKVNMYCVSDDQLICALCKLVGRHRHHQVASLNDR [D36H], which abundance fitness is on record?
**A.** Its abundance fitness is -0.146 ± 0.28.

**Q.** Which abundance fitness does the source give for RGITCLDHENEKVNMYCVSDDQLICALCKLVGRHRAHQVASLNDR [D36A] here?
**A.** The abundance fitness was -0.293 ± 0.085.

**Q.** Which abundance fitness does the source give for RGITCLDHENEKVNMYCVSDDQLICALCKLVGRHRLHQVASLNDR [D36L] here?
**A.** The abundance fitness was -0.125 ± 0.06.

**Q.** With RGITCLDHENEKVNMYCVSDDQLICALCKLVGRHRVHQVASLNDR [D36V] as the variant, how does the abundance fitness read?
**A.** Its abundance fitness is -0.3 ± 0.07.

**Q.** With RGITCLDHENEKVNMYCVSDDQLICALCKLVGRHRTHQVASLNDR [D36T] as the variant, how does the abundance fitness read?
**A.** The abundance fitness was -0.176 ± 0.13.

**Q.** With RGITCLDHENEKVNMYCVSDDQLICALCKLVGRHREHQVASLNDR [D36E] as the variant, how does the abundance fitness read?
**A.** The abundance fitness was 0.036 ± 0.066.

**Q.** For RGITCLDHENEKVNMYCVSDDQLICALCKLVGRHRRHQVASLNDR [D36R], which abundance fitness is on record?
**A.** Its abundance fitness is -0.255 ± 0.061.
